{"source": "patent US20220064674A1", "about": "(MILTENYI BIOTEC B V, published 2022)", "biological_target": "T1, CD62L (L-selectin) expressed on cells (human, UniProt P14151 39-372)", "T1 construct": "whole, on cells; also called HT1080-CD62L", "T1 sequence": "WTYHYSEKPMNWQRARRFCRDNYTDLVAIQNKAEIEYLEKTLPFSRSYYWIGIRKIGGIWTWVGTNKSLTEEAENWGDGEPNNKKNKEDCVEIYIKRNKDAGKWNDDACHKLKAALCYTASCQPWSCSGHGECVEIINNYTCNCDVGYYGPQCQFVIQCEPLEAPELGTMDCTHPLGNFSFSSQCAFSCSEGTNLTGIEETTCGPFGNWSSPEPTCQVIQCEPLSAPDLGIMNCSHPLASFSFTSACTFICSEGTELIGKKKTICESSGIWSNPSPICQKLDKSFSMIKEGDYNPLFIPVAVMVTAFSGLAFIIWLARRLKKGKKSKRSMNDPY", "experiment": "competition and binding assay on PBMC, flow cytometry"}
{"binder": "CD62L specific antibody derived from the same clone (parental antibody) (antibody, V domains shown) VH: EVKLVESGGGLVKPGGSLKLSCAASGFTFSSYAMSWVRQTPEKRLEWVASISSGGSTYYPDSVKGRFTISRDNARNILYLQMSSLRSEDTAMYYCARDDDGYYDYWGQGTTLTVSS VL: not shown", "values": [{"measurement": "binding result", "result": "binds"}]}
